Test results taken from a protein production outcome set (Wang et al. 2014).

assay: label from the status in PepcDB records

| Sequence | protein production |
| --- | --- |
| MSEVEQFATIALISLTAFISPLIADKLRVPVVVLEIVLGMIFGVSFLNVIYASEWLSFLSLFGLIFLMFLAGLEIDADVVLKSGHLKRVVAFFALSLALSVALTALMGLNLFYAIILTNVAVGVVVSVLREIGLEKEDFGQLNIVTALVSDFSTMFLLSIYFITGYLQVAFAFLIILVFLAAYRFGKLVIWHFPDFISRWFSDEPSEIGVRGSLAIMILFVGLSSLLGVEAILGAFLAGVLLSITFRGGKKLYDKLYGMGFGFFIPIFFIKTGSELNITQAGEGIGFILLLLAVSVAVKGIPSLIFASNFGLRRAISMGMLQSTKLSLTIAGVAIGVSSGVITEFESTALVTFTIISCLLSPTLFRFLYPRYLPKTR | failed |
| MSEVNKKVQDGVDDYLEEEDFGQLLEAFDKSREEATTEGVIVEIKNDEVYVDIGKKSEGILALSEIQGDNSKLLFNVGDSIKVAVMGSRGGRSLLSHKKALRKEKVIEFIKNYQENQDDIFTVKVVGKNKGGLIVVDENDVEFFLPKSQYGFKETNNIIGKTFKVKIIKIDKDEQSIIVSRKKTLDDERRKRKELINNVAQQEDLIEGIVKKITTYGMFVDVGGVDGLVHYSEISYKGPVNPGTLYKEGDKVPVKVIKYDKERKHLSLSIKAALPDPWSEIKDTLDIGDTIKVIVSNIEPYGAFVDLGNDIEGFLHISEISWDKNIKNPKDYINKGQEIDVEVIEINPNERRLRVSLRNLLSRPFDEFMKSYKIADVVEGEITSVTSFGAFVKLGGIEGLLHNEDASWDRNDKCKDKFSQGDKIKVKIIKIDEENQKISLSTKELSSSPVQEYAKIHKVGDIVKGAIRDIKDFGVFVELSKNVDALIHKEDISTSMLENLKIGDDIEAAIVFIDEKKNRIRLSVKNLVRIKEREVLNEINNDDKVTLGDIIKDQLALEHHHHHH | not failed |
| MSEYEVLLATKRRTPPDSSAGRSSQIWRRAFGHWLQGRNGSSSLSNQNEPRPCRVRRNAGSHGPPVCIPFALALPPRMDVRLPSRLAPPLGAVLLCTLLMGGPPPTVASPAVLFPSADTTSPRARRLLIQGTTEAQLGDYEEAISHFEAALEQVPEAPVLLLALADAHEAQGALSTALFYARRAQTQGSPRPSPYRRLAEMQRAAGDPAAALRTYQQLLDHVPNANDAHRARAAIQADLGRTKGAIQSYEIYLQRADSPPIDVYRRLLSLYRKTGDKDGVETTLRTLVERRPTVRSYQRRLGEYYADEGRPRKALALLAPLGRQFPNDEALRRQVQRLARQTGQSIASPTQRAQSDSTRSQSASPDAPLRRARSMYDAATASSPPDTAQLRAAAGVLRDVLHQSPDTEAALSLQAELYQAWGRPEEAGRAMERLLDLTPRAPGRWVRTAQTYQRAHLYARAAGVAEEGFLLFPGHMPLARTAAFARLRTGDPAKARRHFQDALSLLGDSTGAAAEAVLHAGLGLAKSRLGRPREADDALKNARALAPQHPQVVRLYARSLARQDDRLDQALDLAEQAVENAPDSPSAHRALGQVQFRRDELEAARRHLRIALDAGGPSATLLERLGDVEAALGNDTAAQTYWQRALDRNPDRSSLREKLAVPANS | failed |
| MSFCKLVSFVLILHLLNSCLISCSSNDLSQIPKNFLSLAKREDFFDWMVGIRRRIHENPELGYEEVETSKLVKTELDKMGVSYKNPVAVTGVIGYVGTGHAPFVALRADMDALPIQEMVEWEHKSKIPGKMHACGHDAHTTMLLGAAKLLKEHQEELQEGGAGAKKIVEAGVLENVGAIFGLHVSNLLGLGQLSSREGLLMAGSGRFKATISGKGGHAALPQFAIDPVLAASNVILSLQHLVSREADPLDSQVVTVATFEGSDAFNVIPDSVTIGGTFRALLPKSFEQLKQRIVQVITTQASVNMCNATVDFLEDETPPFPPTVNNKTLHLFYKNVSVDMLGIENYVETLPVMVSEDFAFYQQAIPGHFSFVGMQNKSHSPMANPHSPFFEVNEELLPYGASLLASLATRYLLDSSSSPNKDEL | failed |
| MSFESNQLMPIAALRGGPGTPAADVLTAFALRRKAEGIDVVGVIVPPEDAGSGHQGHGHGEGHGGGHEGCECRSELIDIATGDRYAMHQDLGSGSQACNLNSSSLALAAGAVERAVARKPALVVLSRFGGQEAVRGGLMSAFQAAIAAGVPVACVVTPKAEDVWNDFAQGLSVSLPPEADALEAWWRDHARGRNAALEHHHHHH | failed |
| MSFIEKMIGSLNDKREWKAMEARAKALPKEYHHAYKAIQKYMWTSGGPTDWQDTKRIFGGILDLFEEGAAEGKKVTDLTGEDVAAFCDELMKDTKTWMDKYRTKLNDSIGRD | not failed |
| MSFKEEQVIKHHQDLANKSVSTFLLLGLDNSGKRKLSTSRTDGMMVVIVNHKTKTITLCSLLRDTFTKIYSQQYHGYQRIETAYTYGGDAAAVATVEHFLKLPIDYYVTLNWDGFIQAINDIGPLSVRVDRAFVGQNYWGHAVHFKAGLQEMNGARALAYARERHVDNDQYRGFRQQAVLYALLKRLNQGALVAKGSQIMGDVKGQVRTNMSEGDMLSLIKYRTVLKHYRVKRVTFQWRTFDTAGRSMVEVYPDSRQHTIAELQAAAGRRAPLEHHHHHH | failed |
| MSFKGEITHLVPNELYAFKVVEGPFHYTGTYRFKPHPEGTWIEWVFEAEPGSFFGVLPPALLKKMVLAQFKKDVDNLQALAQKGEAYESVGNENKPTLETNKPPHKTQQMMERYARWILSHRRIVLEHHHHHH | failed |
| MSFKNFKCVPKMIFGRGSFVQLDTVLEQERTDANDFVVFLVDDVHQHKPLAARVPNKAHDLVIYVNVDDEPTTVQVDELTAQVKAFNTKLPVSVVGLGGGSTMDLAKAVSLMLTNPGSSSEYQGWDLIKNPAVHHIGIPTVSGTGAEASRTAVLCGPVRKLGLNSDYTVFDQIIMDSELIAGVPTDQWFYTGMDCFIHCVESLQGTYLNEFAKAFAEKSMDLCREVYLDDHPEKDDKLMMASYMGGMSIAYSQVGACHAVSYGLGYVLGYHHGIGNCLAFDVLEEFYPEGVAEFRKMMEIHNITLPKNICKDLPDETIAKMVAVTKSMGPLWDNVYGKGWEEKVTDEMLTKLFRRI | not failed |
| MSFNVFSGSFGQIFKRSRKNSHEYKNENATFELIKSSILVAFSGALRIHLAFLLMYIQSNILVCIAGGLIIYTVYTLDRALGSEEDSVNRKELNGSNKKVGLTVSLLAFMVGTYILAGEEMLPLAFIPFVTGYLYSKGIKIGKFALKLKGGLGVKNIVVGLTWGIFIAGLAGSGCRNLIPVVLIFIFFGVKLFINSTIYDFKDIAGDTLAGINTLPVSLGVRKTRNLLTGMHLFSHLVIGVALIHGALAFEPLIVLYSFVCGLICIQKFTHPEYEEFPSQKMERTLLVDGESTSITGLRIAGYLIA | failed |
| MSFPLIFERSRKGRRGLKLVKAVPKAEDLIPKEHLREVPPRLPEVDELTLVRHYTGLSRRQVGVDTTFYPLGSCTMKYNPKLHEEAARLFADLHPYQDPRTAQGALRLMWELGEYLKALTGMDAITLEPAAGAHGELTGILIIRAYHEDRGEGRTRRVVLVPDSAHGSNPATASMAGYQVREIPSGPEGEVDLEALKRELGPHVAALMLTNPNTLGLFERRILEISRLCKEAGVQLYYDGANLNAIMGWARPGDMGFDVVHLNLHKTFTVPHGGGGPGSGPVGVKAHLAPYLPVPLVERGEEGFYLDFDRPKSIGRVRSFYGNFLALVRAWAYIRTLGLEGLKKAAALAVLNARYLKELLKEKGYRVPYDGPSMHEFVAQPPEGFRALDLAKGLLELGFHPPTVYFPLIVKEALMVEPTETEAKETLEAFAEAMGALLKKPKEWLENAPYSTPVRRLDELRANKHPKLTYFDEG | not failed |
| MSFQEIPIIDLQEAFDPATRSKFLEEVRDAIINVGFLLLKNYESLGPTEEDLQSIKQQAIEFFALPAKEKLQCEMLNSPHFLGYTRLANEITASHTDWREQIDLATELPAPKEGEPLYKNIEGPNLWPNPEVIPKFRPTIERFIEKMTALSNVFKDLVAESIGVDPKALNRYFKENQQCKMKLIAYPDVSELDGTKSAALDDTPETNQGVEPHRDSDLITYIYQATEHQNSLQVQNFQGHWITVPNIPGHLVVNNGQTLQAITGGVAKATIHRVLVPEKGTGTRISIPFFQTIDLDSSKGVVDNLPQEVIDLKNERDKKIKDWGVDTGFQFEPDVSKEPIGHAVFRNRIKSHQDVAKKWYPDVLKSVLQEYTH | not failed |
| MSFSYGLAVPFVPTLVLLPQTSAAHVQRIRGGNILSLIDQPPPVVPTLTPPPQQARSGIRINKVTSSYAGLLTSVKEAGLLERCRRDYLLLLTLLVIAGAGVLVAFFFVGDSWLQLVVAAALGIVFTQFALFGHEAAHQQVFTSRAANEWAARLIATLMVGMSYAYWTDKHSRHHARPNVVNRDPDIAPGAIVFHNEVPTNRGRFSRAYGKRQGYLLFPLLLFLGWTLHIDSLKYLLKRGPVKFRWLELGLLGVRFGTYIGLLFLVLSPGIAVAFIGVQVAVFGLYMGGTFAPNHKGMPILPADSRADFLSRQVLTSRNITGGGFVTFLMGGLNYQIEHHLFPDMPRRHLREASQLVKAHCVRTGIPYTETSLMRSYSIVIRYLNTVGLAAADPFTCPLAGQHRP | failed |
| MSFTGKDYSRFRSQQQRGNPHSSEGNTSAVHGTGQNSRPQTPINQASGASPQQGNQSPNGSVNHANPLASRLNDITLDELLDSLGRAGLLRLDPNRPPGTFWFEDDPSVPATVRSIFERDFKELHANWSMTPQHVVDRWFETFAQMYNWDKTINKRVKTEFEAKLKERMTDQVCRWKGKWREKGDAAMPRWFDPAVWAGLISFWRDPKSELKSINSRNARLHDPDGLGIHKHRSGQTSYKAHARKRCELTGETTPNFLVLLDKTHRKPDGSFIDGKSEEIYNEVSSRIQEESSQLCSNNTTESTASGGGSKEEREDIWGWFIAARSRMSSHWSFSSSRRSG | failed |
| MSFTWRKKMDAKTNNAISKSMMFFHWVIGLGMIAVLISGLVMDDESNNLLFNAHMSFGLLVLALSVPRLVGRLIGGMPKPMTERSKFESIAAAVVMYSLLALTVVLPLSGIAVSVGEGYGLSLFGFELVSSGREIHMLKELGEGIHEFSGEALLPFLLVLHLGASFMHHFIKQDGTLLRMLGKA | failed |
| MSFVLWLVGKKCIVDVGTNGKNSWKVGGKDGVACRDHSGFRLEKLGLFCWWKLQKDGCGQKLNRRKDHRAFPLPSVVNERPRKLND | failed |
| MSFVSALCRLAVALWVGGATLFTFVLTPTIFRSESRDAAGRIVGYLFPGYFRWGLACGAVALVALLVVRGKNWIPAAALMVVMLAVTAFQALHIEPKAAELKRQIPSFETTTKDHPLRREFSKLHGISAACNLSVIAGGVVLVILL | failed |
| MSFYIQLASLSIIILYVLLLFRNVDPLVATAVCVGLGFLWNISTPIDIGNAMADALGSFMALVGFIIMLGRGLGEVLTHTQVSHTLVHQIVYGVGVNTQRRAKIGIVLSSFIIVGLLGTLAGGLAILAPSLRPIAGSVGLSRPSLAVLMQASAEEALILGPFAPPVVTLLGVTGLSYGTVFLYASLPIAVVTLITTWFMASRLQKLYINEPCEDENSTEPFTPNRQQKRVTLIFLISFLFCVVYGLFTQAKTSYVIFVMLFLALITGLSCRLGLKQIFNLLFEGMQKSLHLFFLFILFDPFMALIHQAGGFNALTELLTPLINLGGKPVLSILIGFTGAFGMPGAAEATIKMLHQLFSPSVLQMQLPLITFALCMLFATRVTNYAYPGANMFAAMGFAGSENVKAMIQNGLVVTGVQVAFLIVYSLFIP | failed |
| MSGHKCYSWELQDRFAQDKSVVNKMQQKYWETKQAFIKATGKKEDEHVVASDADLDAKLELFHSIQRTCLDLSKAIVLYQKRICFLSQEENELGKFLRSQGFQDKTRAGKMMQATGKALCFSSQQRLALRNPLCRFHQEVETFRHRAISDTWLTVNRMEQYRTEYRGALLWMKDVSQELDPDLYKQMEKFRKVQTQVRLAKKNFDKLKMDVCQKVDLLGASRCNLLSHMLATYQTTLLHFWEKTSHTMAAIHESFKGYQPYEFTTLKSLQDPMKKLVEKEGKKTSWRENREAVAPEPRQLISLEDEHKDSSTYKTEEGTSVLSSVDKGSVHDTCSGPIDELLDGKPEEACLGPTAGTPEPESGDKDDLLLLNEIFSTSCLDEGEFSREWAAVFGDDRLKEPAPMGAQGEPDPKPQIGSGFLPSQLLDQNMKDLQASLQEPAKAASDLTAWFSLFADLDPLSNPDAVGKTDKEHELLNA | failed |
